Earlier results, collected in paper PMC4254573.

What was measured:
[1] = target: EGFR ECD (Drosophila melanogaster) (UniProt P04412)
sEGFR ECD (Homo sapiens) = sEGFR ECD (Homo sapiens) (UniProt P00533)

EGFR ECD (from UniProt P04412)
Kd [1]: 40 µM

sEGFR ECD (from UniProt P00533)
Kd (sEGFR ECD (Homo sapiens)): 1 µM
